To fix the notation:
B1: Outer membrane protein A, P0A910 (parent)
chain: MKKTAIAIAVALAGFATVAQAAPKDNTWYTGAKLGWSQYHDTGFINNNGPTHENQLGAGAFGGYQVNPYVGFEMGYDWLGRMPYKGSVENGAYKAQGVQLTAKLGYPITDDLDIYTRLGGMVWRADTKSNVYGKNHDTGVSPVFAGGVEYAITPEIATRLEYQWTNNIGDAHTIGTRPDNGMLSLGVSYRFGQGEAAPVVAPAPAPAPEVQTKHFTLKSDVLFNFNKATLKPEGQAALDQLYSQLSNLDPKDGSVVVLGYTDRIGSDAYNQGLSERRAQSVVDYLISKGIPADKISARGMGESNPVTGNTCDNVKQRAALIDCLAPDRRVEIEVKGIKDVVTQPQA

The data set covers variants of B1. The settings on record: Escherichia coli (strain K12); pH 9.2; 37 °C; Urea; Fluorescence; Glycine 10 mM; reversible: Yes; structure 1QJP; whole UniProt chain shown.

For the variant MKKTAIAIAVALAGFATVAQAAPKDNTWYTGAKLGWSQYHDTGFINNNGPTHENQLGAGAFGGYQVNPYVGFEMGYDWLGRMPYKGSVENGAYKAQGVQLTAKLGYPITDDLDIYTRLGGMVWRADTKSNVYGKNHDTGVSPVAAGGVEYAITPEIATRLEAQATNNIGDAHTIGTRPDNGMLSLGVSYRFGQGEAAPVVAPAPAPAPEVQTKHFTLKSDVLFNFNKATLKPEGQAALDQLYSQLSNLDPKDGSVVVLGYTDRIGSDAYNQGLSERRAQSVVDYLISKGIPADKISARGMGESNPVTGNTCDNVKQRAALIDCLAPDRRVEIEVKGIKDVVTQPQA [F144A Y162A W164A], the “ddG of mutation (higher = less stable)” value turned out to be 6.8 kcal/mol, the denaturant m value came out at 2 kcal/mol/M, the “denaturant midpoint (higher = more stable)” value (shortened to “denaturant midpoint”) was determined as 1.2 M and the unfolding free energy came out at 2.5 kcal/mol.
Turning to MKKTAIAIAVALAGFATVAQAAPKDNTWYTGAKLGWSQYHDTGFINNNGPTHENQLGAGAFGGAQVNPYVGFEMGYDWLGRMPYKGSVENGAYKAQGVQLTAKLGYPITDDLDIYTRLGGMVWRADTKSNVYGKNHDTGVSPVFAGGVEYAITPEIATRLEYQWTNNIGDAHTIGTRPDNGMLSLGVSYRFGQGEAAPVVAPAPAPAPEVQTKHFTLKSDVLFNFNKATLKPEGQAALDQLYSQLSNLDPKDGSVVVLGYTDRIGSDAYNQGLSERRAQSVVDYLISKGIPADKISARGMGESNPVTGNTCDNVKQRAALIDCLAPDRRVEIEVKGIKDVVTQPQA [Y64A], the “ddG of mutation (higher = less stable)” value turned out to be 3.8 kcal/mol, the denaturant m value came to 2.2 kcal/mol/M, the “denaturant midpoint” value is 2.6 M and the unfolding free energy is 5.5 kcal/mol.
Taken in the same sequence, the figures for MKKTAIAIAVALAGFATVAQAAPKDNTWYTGAKLGWSQYHDTGFINNNGPTHENQLGAGAFGGYQVNPYVGFEMGYDWLGRMPYKGSVENGAYKAQGVQLTAKLGYPITDDLDIYTRLGGMVWRADTKSNVYGKNHDTGVSPVFAGGVEAAITPEIATRLEYQWTNNIGDAHTIGTRPDNGMLSLGVSYRFGQGEAAPVVAPAPAPAPEVQTKHFTLKSDVLFNFNKATLKPEGQAALDQLYSQLSNLDPKDGSVVVLGYTDRIGSDAYNQGLSERRAQSVVDYLISKGIPADKISARGMGESNPVTGNTCDNVKQRAALIDCLAPDRRVEIEVKGIKDVVTQPQA [Y150A] were 2.7 kcal/mol, 2.4 kcal/mol/M, 2.8 M and 6.6 kcal/mol.
For MKKTAIAIAVALAGFATVAQAAPKDNTWYTGAKLGWSQYHDTGFINNNGPTHENQLGAGAFGGYQVNPYVGFEMGYDWLGRMPYKGSVENGAYKAQGVQLTAKLGYPITDDLDIYTRLGGMVWRADTKSNVYGKNHDTGVSPVFAGGVEYAITPEIATRLEYQWTNNIGDAHTIGTRPDNGMLSLGVSYRAGQGEAAPVVAPAPAPAPEVQTKHFTLKSDVLFNFNKATLKPEGQAALDQLYSQLSNLDPKDGSVVVLGYTDRIGSDAYNQGLSERRAQSVVDYLISKGIPADKISARGMGESNPVTGNTCDNVKQRAALIDCLAPDRRVEIEVKGIKDVVTQPQA [F191A], in that order: 2.4 kcal/mol, 2.3 kcal/mol/M, 3 M and 6.9 kcal/mol.
For MKKTAIAIAVALAGFATVAQAAPKDNTWYTGAKLGWSQYHDTGFINNNGPTHENQLGAGAFGGYQVNPYVGFEMGADALGRMPYKGSVENGAYKAQGVQLTAKLGYPITDDLDIYTRLGGMVWRADTKSNVYGKNHDTGVSPVFAGGVEYAITPEIATRLEYQWTNNIGDAHTIGTRPDNGMLSLGVSYRFGQGEAAPVVAPAPAPAPEVQTKHFTLKSDVLFNFNKATLKPEGQAALDQLYSQLSNLDPKDGSVVVLGYTDRIGSDAYNQGLSERRAQSVVDYLISKGIPADKISARGMGESNPVTGNTCDNVKQRAALIDCLAPDRRVEIEVKGIKDVVTQPQA [Y76A W78A], in that order: 4.2 kcal/mol, 2.4 kcal/mol/M, 2.1 M and 5.1 kcal/mol.
MKKTAIAIAVALAGFATVAQAAPKDNTAYTGAKLGWSQYHDTGFINNNGPTHENQLGAGAFGGYQVNPYVGFEMGYDWLGRMPYKGSVENGAYKAQGVQLTAKLGYPITDDLDIYTRLGGMVWRADTKSNVYGKNHDTGVSPVFAGGVEYAITPEIATRLEYQWTNNIGDAHTIGTRPDNGMLSLGVSYRFGQGEAAPVVAPAPAPAPEVQTKHFTLKSDVLFNFNKATLKPEGQAALDQLYSQLSNLDPKDGSVVVLGYTDRIGSDAYNQGLSERRAQSVVDYLISKGIPADKISARGMGESNPVTGNTCDNVKQRAALIDCLAPDRRVEIEVKGIKDVVTQPQA [W28A]: the “ddG of mutation (higher = less stable)” value amounted to 3.6 kcal/mol, the denaturant m value is 1.9 kcal/mol/M, the “denaturant midpoint” value was 3 M and the unfolding free energy worked out at 5.7 kcal/mol.
Taken in the same sequence, the figures for MKKTAIAIAVALAGFATVAQAAPKDNTWYTGAKLGWSQYHDTGFINNNGPTHENQLGAGAFGGYQVNPYVGFEMGYDALGRMPYKGSVENGAYKAQGVQLTAKLGYPITDDLDIYTRLGGMVWRADTKSNVYGKNHDTGVSPVFAGGVEYAITPEIATRLEYQWTNNIGDAHTIGTRPDNGMLSLGVSYRFGQGEAAPVVAPAPAPAPEVQTKHFTLKSDVLFNFNKATLKPEGQAALDQLYSQLSNLDPKDGSVVVLGYTDRIGSDAYNQGLSERRAQSVVDYLISKGIPADKISARGMGESNPVTGNTCDNVKQRAALIDCLAPDRRVEIEVKGIKDVVTQPQA [W78A] were 2 kcal/mol, 2.4 kcal/mol/M, 3.1 M and 7.3 kcal/mol.
For MKKTAIAIAVALAGFATVAQAAPKDNTWYTGAKLGWSQYHDTGFINNNGPTHENQLGAGAFGGYQVNPYVGFEMGYDWLGRMPYKGSVENGAYKAQGVQLTAKLGYPITDDLDIYTRLGGMVWRADTKSNVYGKNHDTGVSPVFAGGVEYAITPEIATRLEYQWTNNIGDAHTIGTRPDNGMLSLGVSARFGQGEAAPVVAPAPAPAPEVQTKHFTLKSDVLFNFNKATLKPEGQAALDQLYSQLSNLDPKDGSVVVLGYTDRIGSDAYNQGLSERRAQSVVDYLISKGIPADKISARGMGESNPVTGNTCDNVKQRAALIDCLAPDRRVEIEVKGIKDVVTQPQA [Y189A], in that order: 0.2 kcal/mol, 3.1 kcal/mol/M, 2.9 M and 9.1 kcal/mol.
For MKKTAIAIAVALAGFATVAQAAPKDNTWYTGAKLGWSQYHDTGFINNNGPTHENQLGAGAFGGYQVNPYVGAEMGYDWLGRMPYKGSVENGAYKAQGVQLTAKLGYPITDDLDIYTRLGGMVWRADTKSNVYGKNHDTGVSPVFAGGVEYAITPEIATRLEYQWTNNIGDAHTIGTRPDNGMLSLGVSYRFGQGEAAPVVAPAPAPAPEVQTKHFTLKSDVLFNFNKATLKPEGQAALDQLYSQLSNLDPKDGSVVVLGYTDRIGSDAYNQGLSERRAQSVVDYLISKGIPADKISARGMGESNPVTGNTCDNVKQRAALIDCLAPDRRVEIEVKGIKDVVTQPQA [F72A], in that order: 1.2 kcal/mol, 2.3 kcal/mol/M, 3.5 M and 8.1 kcal/mol.

Source of the values: FireProtDB (doi:10.1021/ja068849o).
